Positions of bridges follow the written chain, without caps; N, C: chain ends. Non-standard residues stand in square brackets, D forms with d. R8 = C=CCCCCCC[C@@](C)(N)C(=O)O; S5 = C=CCCC[C@](C)(N)C(=O)O
B1: SEQ ID NO: 1760 (peptide)
peptide: Ac-IWIAAALR[R8]IGDAFN[S5]YYD-NH2
modifications: staple 9-16
SMILES: CC[C@H](C)[C@H](NC(C)=O)C(=O)N[C@@H](Cc1c[nH]c2ccccc12)C(=O)N[C@H](C(=O)N[C@@H](C)C(=O)N[C@@H](C)C(=O)N[C@@H](C)C(=O)N[C@@H](CC(C)C)C(=O)N[C@@H](CCCNC(=N)N)C(=O)N[C@]1(C)CCCCCCC=CCCC[C@@](C)(C(=O)N[C@@H](Cc2ccc(O)cc2)C(=O)N[C@@H](Cc2ccc(O)cc2)C(=O)N[C@@H](CC(=O)O)C(N)=O)NC(=O)[C@H](CC(N)=O)NC(=O)[C@H](Cc2ccccc2)NC(=O)[C@H](C)NC(=O)[C@H](CC(=O)O)NC(=O)CNC(=O)[C@H]([C@@H](C)CC)NC1=O)[C@@H](C)CC
B2: SEQ ID NO: 1762 (peptide)
peptide: Ac-IWIAAALR[R8]IGDAFN[S5]YYQ-NH2
modifications: staple 9-16
SMILES: CC[C@H](C)[C@H](NC(C)=O)C(=O)N[C@@H](Cc1c[nH]c2ccccc12)C(=O)N[C@H](C(=O)N[C@@H](C)C(=O)N[C@@H](C)C(=O)N[C@@H](C)C(=O)N[C@@H](CC(C)C)C(=O)N[C@@H](CCCNC(=N)N)C(=O)N[C@]1(C)CCCCCCC=CCCC[C@@](C)(C(=O)N[C@@H](Cc2ccc(O)cc2)C(=O)N[C@@H](Cc2ccc(O)cc2)C(=O)N[C@@H](CCC(N)=O)C(N)=O)NC(=O)[C@H](CC(N)=O)NC(=O)[C@H](Cc2ccccc2)NC(=O)[C@H](C)NC(=O)[C@H](CC(=O)O)NC(=O)CNC(=O)[C@H]([C@@H](C)CC)NC1=O)[C@@H](C)CC
B3: SEQ ID NO: 1763 (peptide)
peptide: Ac-IWIAAALR[R8]IGDAFN[S5]YYS-NH2
modifications: staple 9-16
SMILES: CC[C@H](C)[C@H](NC(C)=O)C(=O)N[C@@H](Cc1c[nH]c2ccccc12)C(=O)N[C@H](C(=O)N[C@@H](C)C(=O)N[C@@H](C)C(=O)N[C@@H](C)C(=O)N[C@@H](CC(C)C)C(=O)N[C@@H](CCCNC(=N)N)C(=O)N[C@]1(C)CCCCCCC=CCCC[C@@](C)(C(=O)N[C@@H](Cc2ccc(O)cc2)C(=O)N[C@@H](Cc2ccc(O)cc2)C(=O)N[C@@H](CO)C(N)=O)NC(=O)[C@H](CC(N)=O)NC(=O)[C@H](Cc2ccccc2)NC(=O)[C@H](C)NC(=O)[C@H](CC(=O)O)NC(=O)CNC(=O)[C@H]([C@@H](C)CC)NC1=O)[C@@H](C)CC
B4: SEQ ID NO: 1761 (peptide)
peptide: Ac-IWIAAALR[R8]IGDAFN[S5]YYE-NH2
modifications: staple 9-16
SMILES: CC[C@H](C)[C@H](NC(C)=O)C(=O)N[C@@H](Cc1c[nH]c2ccccc12)C(=O)N[C@H](C(=O)N[C@@H](C)C(=O)N[C@@H](C)C(=O)N[C@@H](C)C(=O)N[C@@H](CC(C)C)C(=O)N[C@@H](CCCNC(=N)N)C(=O)N[C@]1(C)CCCCCCC=CCCC[C@@](C)(C(=O)N[C@@H](Cc2ccc(O)cc2)C(=O)N[C@@H](Cc2ccc(O)cc2)C(=O)N[C@@H](CCC(=O)O)C(N)=O)NC(=O)[C@H](CC(N)=O)NC(=O)[C@H](Cc2ccccc2)NC(=O)[C@H](C)NC(=O)[C@H](CC(=O)O)NC(=O)CNC(=O)[C@H]([C@@H](C)CC)NC1=O)[C@@H](C)CC
B5: SEQ ID NO: 1766 (peptide)
peptide: Ac-IWIAAALR[R8]IGDAFN[S5]YYK-NH2
modifications: staple 9-16
SMILES: CC[C@H](C)[C@H](NC(C)=O)C(=O)N[C@@H](Cc1c[nH]c2ccccc12)C(=O)N[C@H](C(=O)N[C@@H](C)C(=O)N[C@@H](C)C(=O)N[C@@H](C)C(=O)N[C@@H](CC(C)C)C(=O)N[C@@H](CCCNC(=N)N)C(=O)N[C@]1(C)CCCCCCC=CCCC[C@@](C)(C(=O)N[C@@H](Cc2ccc(O)cc2)C(=O)N[C@@H](Cc2ccc(O)cc2)C(=O)N[C@@H](CCCCN)C(N)=O)NC(=O)[C@H](CC(N)=O)NC(=O)[C@H](Cc2ccccc2)NC(=O)[C@H](C)NC(=O)[C@H](CC(=O)O)NC(=O)CNC(=O)[C@H]([C@@H](C)CC)NC1=O)[C@@H](C)CC
B6: SEQ ID NO: 1764 (peptide)
peptide: Ac-IWIAAALR[R8]IGDAFN[S5]YYH-NH2
modifications: staple 9-16
SMILES: CC[C@H](C)[C@H](NC(C)=O)C(=O)N[C@@H](Cc1c[nH]c2ccccc12)C(=O)N[C@H](C(=O)N[C@@H](C)C(=O)N[C@@H](C)C(=O)N[C@@H](C)C(=O)N[C@@H](CC(C)C)C(=O)N[C@@H](CCCNC(=N)N)C(=O)N[C@]1(C)CCCCCCC=CCCC[C@@](C)(C(=O)N[C@@H](Cc2ccc(O)cc2)C(=O)N[C@@H](Cc2ccc(O)cc2)C(=O)N[C@@H](Cc2c[nH]cn2)C(N)=O)NC(=O)[C@H](CC(N)=O)NC(=O)[C@H](Cc2ccccc2)NC(=O)[C@H](C)NC(=O)[C@H](CC(=O)O)NC(=O)CNC(=O)[C@H]([C@@H](C)CC)NC1=O)[C@@H](C)CC
B7: SEQ ID NO: 1765 (peptide)
peptide: Ac-IWIAAALR[R8]IGDAFN[S5]YYR-NH2
modifications: staple 9-16
SMILES: CC[C@H](C)[C@H](NC(C)=O)C(=O)N[C@@H](Cc1c[nH]c2ccccc12)C(=O)N[C@H](C(=O)N[C@@H](C)C(=O)N[C@@H](C)C(=O)N[C@@H](C)C(=O)N[C@@H](CC(C)C)C(=O)N[C@@H](CCCNC(=N)N)C(=O)N[C@]1(C)CCCCCCC=CCCC[C@@](C)(C(=O)N[C@@H](Cc2ccc(O)cc2)C(=O)N[C@@H](Cc2ccc(O)cc2)C(=O)N[C@@H](CCCNC(=N)N)C(N)=O)NC(=O)[C@H](CC(N)=O)NC(=O)[C@H](Cc2ccccc2)NC(=O)[C@H](C)NC(=O)[C@H](CC(=O)O)NC(=O)CNC(=O)[C@H]([C@@H](C)CC)NC1=O)[C@@H](C)CC
B8: SEQ ID NO: 1753 (peptide)
peptide: Ac-IWIAAALR[R8]IGDAFN[S5]LYA-NH2
modifications: staple 9-16
SMILES: CC[C@H](C)[C@H](NC(C)=O)C(=O)N[C@@H](Cc1c[nH]c2ccccc12)C(=O)N[C@H](C(=O)N[C@@H](C)C(=O)N[C@@H](C)C(=O)N[C@@H](C)C(=O)N[C@@H](CC(C)C)C(=O)N[C@@H](CCCNC(=N)N)C(=O)N[C@]1(C)CCCCCCC=CCCC[C@@](C)(C(=O)N[C@@H](CC(C)C)C(=O)N[C@@H](Cc2ccc(O)cc2)C(=O)N[C@@H](C)C(N)=O)NC(=O)[C@H](CC(N)=O)NC(=O)[C@H](Cc2ccccc2)NC(=O)[C@H](C)NC(=O)[C@H](CC(=O)O)NC(=O)CNC(=O)[C@H]([C@@H](C)CC)NC1=O)[C@@H](C)CC
B9: SEQ ID NO: 1749 (peptide)
peptide: Ac-IWIAAALR[R8]IGDAFE[S5]YYA-NH2
modifications: staple 9-16
SMILES: CC[C@H](C)[C@H](NC(C)=O)C(=O)N[C@@H](Cc1c[nH]c2ccccc12)C(=O)N[C@H](C(=O)N[C@@H](C)C(=O)N[C@@H](C)C(=O)N[C@@H](C)C(=O)N[C@@H](CC(C)C)C(=O)N[C@@H](CCCNC(=N)N)C(=O)N[C@]1(C)CCCCCCC=CCCC[C@@](C)(C(=O)N[C@@H](Cc2ccc(O)cc2)C(=O)N[C@@H](Cc2ccc(O)cc2)C(=O)N[C@@H](C)C(N)=O)NC(=O)[C@H](CCC(=O)O)NC(=O)[C@H](Cc2ccccc2)NC(=O)[C@H](C)NC(=O)[C@H](CC(=O)O)NC(=O)CNC(=O)[C@H]([C@@H](C)CC)NC1=O)[C@@H](C)CC
B10: SEQ ID NO: 1751 (peptide)
peptide: Ac-IWIAAALR[R8]IGDAFS[S5]YYA-NH2
modifications: staple 9-16
SMILES: CC[C@H](C)[C@H](NC(C)=O)C(=O)N[C@@H](Cc1c[nH]c2ccccc12)C(=O)N[C@H](C(=O)N[C@@H](C)C(=O)N[C@@H](C)C(=O)N[C@@H](C)C(=O)N[C@@H](CC(C)C)C(=O)N[C@@H](CCCNC(=N)N)C(=O)N[C@]1(C)CCCCCCC=CCCC[C@@](C)(C(=O)N[C@@H](Cc2ccc(O)cc2)C(=O)N[C@@H](Cc2ccc(O)cc2)C(=O)N[C@@H](C)C(N)=O)NC(=O)[C@H](CO)NC(=O)[C@H](Cc2ccccc2)NC(=O)[C@H](C)NC(=O)[C@H](CC(=O)O)NC(=O)CNC(=O)[C@H]([C@@H](C)CC)NC1=O)[C@@H](C)CC
B11: SEQ ID NO: 1750 (peptide)
peptide: Ac-IWIAAALR[R8]IGDAFQ[S5]YYA-NH2
modifications: staple 9-16
SMILES: CC[C@H](C)[C@H](NC(C)=O)C(=O)N[C@@H](Cc1c[nH]c2ccccc12)C(=O)N[C@H](C(=O)N[C@@H](C)C(=O)N[C@@H](C)C(=O)N[C@@H](C)C(=O)N[C@@H](CC(C)C)C(=O)N[C@@H](CCCNC(=N)N)C(=O)N[C@]1(C)CCCCCCC=CCCC[C@@](C)(C(=O)N[C@@H](Cc2ccc(O)cc2)C(=O)N[C@@H](Cc2ccc(O)cc2)C(=O)N[C@@H](C)C(N)=O)NC(=O)[C@H](CCC(N)=O)NC(=O)[C@H](Cc2ccccc2)NC(=O)[C@H](C)NC(=O)[C@H](CC(=O)O)NC(=O)CNC(=O)[C@H]([C@@H](C)CC)NC1=O)[C@@H](C)CC
B12: SEQ ID NO: 1752 (peptide)
peptide: Ac-IWIAAALR[R8]IGDAFH[S5]YYA-NH2
modifications: staple 9-16
SMILES: CC[C@H](C)[C@H](NC(C)=O)C(=O)N[C@@H](Cc1c[nH]c2ccccc12)C(=O)N[C@H](C(=O)N[C@@H](C)C(=O)N[C@@H](C)C(=O)N[C@@H](C)C(=O)N[C@@H](CC(C)C)C(=O)N[C@@H](CCCNC(=N)N)C(=O)N[C@]1(C)CCCCCCC=CCCC[C@@](C)(C(=O)N[C@@H](Cc2ccc(O)cc2)C(=O)N[C@@H](Cc2ccc(O)cc2)C(=O)N[C@@H](C)C(N)=O)NC(=O)[C@H](Cc2c[nH]cn2)NC(=O)[C@H](Cc2ccccc2)NC(=O)[C@H](C)NC(=O)[C@H](CC(=O)O)NC(=O)CNC(=O)[C@H]([C@@H](C)CC)NC1=O)[C@@H](C)CC

target: T1, BCL-XL (UniProt Q07817 1-209); test: Ki; method not stated; unit not printed (nM per Table 6)
T1 construct: Target of the Ki columns
T1 sequence (Q07817 1-209): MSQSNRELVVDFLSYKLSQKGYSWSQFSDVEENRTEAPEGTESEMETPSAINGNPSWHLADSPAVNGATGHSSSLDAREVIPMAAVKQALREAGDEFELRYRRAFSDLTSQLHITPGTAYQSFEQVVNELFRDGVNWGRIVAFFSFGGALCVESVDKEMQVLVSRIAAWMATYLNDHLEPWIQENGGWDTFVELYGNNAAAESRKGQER

Row | Binder | Ki [nM]
1 | B1 | 116
2 | B2 | 41.1
3 | B3 | 36
4 | B4 | 45.4
5 | B5 | 66.3
6 | B6 | 73.8
7 | B7 | 186
8 | B8 | 69.9
9 | B9 | 17.9
10 | B10 | 44.1
11 | B11 | 36.5
12 | B12 | 36.3

target: T2, MCL-1 (UniProt Q07820 172-327, limits assumed); test: as above
T2 construct: Target of the Ki columns; also called Myeloid cell leukemia 1
T2 sequence (Q07820 172-327 limits assumed): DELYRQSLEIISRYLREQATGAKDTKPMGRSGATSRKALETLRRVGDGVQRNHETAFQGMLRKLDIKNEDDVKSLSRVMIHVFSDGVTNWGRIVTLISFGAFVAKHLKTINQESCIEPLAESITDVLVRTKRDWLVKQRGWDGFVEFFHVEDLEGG

Row | Binder | Ki [nM]
13 | B1 | 2.2
14 | B2 | 4.6
15 | B3 | 4.7
16 | B4 | 1.4
17 | B5 | 6.6
18 | B6 | 10.6
19 | B7 | 18.5
20 | B8 | 17.6
21 | B9 | 1.8
22 | B10 | 8
23 | B11 | 4.9
24 | B12 | 8

target: T3, BCL-2 (UniProt P10415 1-217, limits assumed); test: as above
T3 construct: Target of the Ki columns
T3 sequence (P10415 1-217 limits assumed): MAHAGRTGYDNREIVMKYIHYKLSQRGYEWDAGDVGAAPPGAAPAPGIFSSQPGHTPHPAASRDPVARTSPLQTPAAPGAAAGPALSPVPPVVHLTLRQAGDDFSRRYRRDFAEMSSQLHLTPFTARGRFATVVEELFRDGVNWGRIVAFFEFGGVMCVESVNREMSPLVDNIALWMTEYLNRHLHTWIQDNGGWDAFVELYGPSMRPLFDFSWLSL

Row | Binder | Ki [nM]
25 | B1 | 138
26 | B2 | 64.7
27 | B3 | 62.4
28 | B4 | 56.4
29 | B5 | 43.4
30 | B6 | 98.8
31 | B7 | 142
32 | B8 | 125
33 | B9 | 30.7
34 | B10 | 67.5
35 | B11 | 71.6
36 | B12 | 57.4

— patent US20180273587A1 (AILERON THERAPEUTICS, published 2018)
